Key:
Assay in all cases: inhibition ELISA: serum preincubated with soluble peptide, then preS1 (94-117) coated plate
[1] = biological target: IgG anti-preS1 (94-117) in serum from a HBeAg+ chronic patient (FIG. 7)
[2] = biological target: IgG anti-preS1 (94-117) in serum of HBeAg+ patient with acute resolving HB-infection (FIG. 5b)
[3] = biological target: IgG anti-preS1 (94-117) in serum of HBeAg+ patient with acute resolving HB-infection (FIG. 6a)
[4] = biological target: IgG anti-preS1 (94-117) in serum of HBeAg+ patient with acute resolving HB-infection (FIG. 6b)
[5] = biological target: IgG anti-preS1 (94-117) in serum of one HBeAg+ patient with chronic HBV-infection who later spontaneously seroconverted to anti-HBe (FIG. 5a)

Measured: percent inhibition

PASTNRQSGRQPTPISPPLRDSHP [preS1#94-117 peptide (HBV subtypes adw, adw2 and two of three adr subtypes)]
100%: all assays above

— patent US8076085
